According to article PMC7773637, “Short-Chain Dehydrogenase NcmD Is Responsible for the C-10 Oxidation of Nocamycin F in Nocamycin Biosynthesis” (Frontiers in Microbiology, 2020):

Test system: CC1=CC(O)C2OC1(C(C)C(C)O)OC(C(C)/C=C(C)/C=C/C(O)=C1C(=O)CNC1=O)C2C
Experiment: HPLC product quantification, initial rates, Michaelis-Menten fit
Type: biochemical, Saccharothrix syringae
Conditions: 2 mM NAD^+, pH 8.5, 45°C, 0.2 μM NcmD

NcmD (Saccharothrix syringae)
Km: 131 ± 13 µM
kcat: 1.08 ± 0.083 s⁻¹
